The record followed here is patent US20060127985A1 (IMMUNEX, published 2006).

In experiment [1] the target is T1, murine 4-1BB ligand (4-1BB-L), cell surface (murine, UniProt P41274 1-309).
T1 construct: Native on EL4 6.1C10 and EL4 6.1 thymoma cells, the source of the cDNA; Recombinant full length on transfected COS and CV-1 cells; also called mu4-1BB-L; native surface mu4-1BB-L
T1 sequence: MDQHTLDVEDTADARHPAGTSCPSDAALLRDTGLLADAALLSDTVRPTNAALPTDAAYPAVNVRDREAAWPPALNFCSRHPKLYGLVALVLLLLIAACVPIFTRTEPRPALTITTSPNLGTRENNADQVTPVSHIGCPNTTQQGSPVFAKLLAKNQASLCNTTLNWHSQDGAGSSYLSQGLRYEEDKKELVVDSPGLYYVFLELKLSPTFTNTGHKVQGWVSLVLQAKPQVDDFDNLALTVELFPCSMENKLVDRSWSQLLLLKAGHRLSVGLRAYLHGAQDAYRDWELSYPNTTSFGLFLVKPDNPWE
In words: Scatchard analysis, 125I-4-1BB/Fc binding to EL4 6.1C10 cells. How it is done:
Several cell lines were screened for the ability to bind the radioiodinated murine 4-1BB/Fc fusion protein described in Example 1. Briefly, quantitative binding studies were performed according to standard methodology, and Scatchard plots were derived for the various cell lines. […] The EL4 6.1C10 cell line was derived from a subclone designated EL4 6.1 by using a cell sorter to enrich for a cell population expressing high levels of murine type I Interleukin-1 receptor, as described in U.S. Pat. No. 4,968,607. EL4 6.1 had been derived from a mouse thymoma cell line EL-4 (ATCC TIB39) as described by MacDonald et al. (J. Immunol. 135:3944, 1985) and Lowenthal and MacDonald (J. Exp. Med. 164:1060, 1986).

Experiment [2] deals with T2, human 4-1BB ligand (4-1BB-L), cell surface (human, UniProt P41273 1-254).
T2 construct: Native on the anti-CD3-stimulated PL1 (PL-1) T cell clone, the source of the cDNA; Recombinant full length on transfected CV-1/EBNA cells; also called hu4-1BB-L; clone 7A
Kind of experiment: slide autoradiography on transfected CV-1 cells.

T2 sequence (P41273 whole entry): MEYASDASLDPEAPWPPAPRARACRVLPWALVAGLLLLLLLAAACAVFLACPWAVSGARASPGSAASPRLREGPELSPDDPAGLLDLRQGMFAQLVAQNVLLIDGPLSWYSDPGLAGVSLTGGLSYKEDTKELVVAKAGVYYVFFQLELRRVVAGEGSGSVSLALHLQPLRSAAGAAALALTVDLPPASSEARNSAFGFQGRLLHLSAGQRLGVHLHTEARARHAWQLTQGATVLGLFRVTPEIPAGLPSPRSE

B1: murine 4-1BB/Fc fusion protein (Fc fusion)
chain: VQNSCDNCQPGTFCRKYNPVCKSCPPSTFSSIGGQPNCNICRVCAGYFRFKKFCSSTHNAECECIEGFHCLGPQCTRCEKDCRPGQELTKQGCKTCSLGTFNDQNGTGVCRPWTNCSLDGRSVLKTGTTEKDVVCGPPVVSFSPSTTISVTPEEPRSCDKTHTCPPCPAPELLGGPSVFLFPPKPKDTLMISRTPEVTCVVVDVSHEDPEVKFNWYVDGVEVHNAKTKPREEQYNSTYRVVSVLTVLHQDWLNGKDYKCKVSNKALPAPMQKTISKAKGQPREPQVYTLPPSRDELTKNQVSLTCLVKGFYPRHIAVEWESNGQPENNYKTTPPVLDSDGSFFLYSKLTVDKSRWQQGNVFSCSVMHEALHNHYTQKSLSLSPGK
modifications: 125I-radioiodinated where used as tracer
notes: The murine IL-7 leader of the vector is cleaved on secretion; Fc is joined through the BglII site; also called mu4-1BB/Fc; soluble murine 4-1BB/Fc
On to B1, for which, in experiment [1], the Ka was ~2e+09 M⁻¹. In addition, in experiment [2], the binding result was “no binding”.
